Experimental data: US6635450

T1: p27 protein, the 27 kD cyclin E-Cdk2 binding protein of Mv1Lu mink epithelial cells (endogenous)
T1 chain: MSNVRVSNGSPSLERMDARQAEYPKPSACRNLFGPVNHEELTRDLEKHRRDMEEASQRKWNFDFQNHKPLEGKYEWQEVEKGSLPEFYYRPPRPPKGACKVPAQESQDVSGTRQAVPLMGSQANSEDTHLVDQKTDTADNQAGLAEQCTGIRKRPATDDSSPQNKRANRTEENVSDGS

T2: recombinant mouse Kip1 with a C-terminal hexahistidine sequence (expressed in BL21(DE3) bacteria from pET21a)
T2 chain: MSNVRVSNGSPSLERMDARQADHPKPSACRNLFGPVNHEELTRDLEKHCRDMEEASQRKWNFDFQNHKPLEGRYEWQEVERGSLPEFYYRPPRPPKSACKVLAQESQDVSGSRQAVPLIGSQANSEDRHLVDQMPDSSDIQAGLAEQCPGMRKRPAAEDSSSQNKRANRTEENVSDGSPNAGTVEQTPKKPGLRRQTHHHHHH

T3: Kip1 (28-79), 52-amino acid peptide with a C-terminal hexahistidine tag
T3 chain: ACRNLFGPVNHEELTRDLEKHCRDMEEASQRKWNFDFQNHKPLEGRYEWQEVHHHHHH


Legend:
[1] = biological target: T1, p27 protein, the 27 kD cyclin E-Cdk2 …
[2] = biological target: T2, recombinant mouse Kip1 with a …
[3] = biological target: T3, Kip1 (28-79), 52-amino acid peptide …

Row | Protein | activation of Cdk2 by cyclin E in extracts (cyclin E-associated histone H1 kinase activity) [1] | Rb kinase activity (phosphorylation of a GST-Rb fusion product) [2] | Rb phosphorylation [3] | lowering of the cyclin E threshold for Cdk2 activation (cyclin E-associated histone H1 kinase activity) [1]
1 | cyclin D2-Cdk4 complex (baculovirus produced, co-infected Sf9 cells) (protein) chain 1: MELLCCEVDPVRRAVPDRNLLEDRVLQNLLTIEERYLPQCSYFKCVQKDIQPYMRRMVATWMLEVCEEQKCEEEVFPLAMNYLDRFLAGVPTPKTHLQLLGAVCMFLASKLKETIPLTAEKLCIYTDNSVKPQELLEWELVVLGKLKWNLAAVTPHDFIEHILRKLPQQKEKLSLIRKHAQTFIALCATDFKFAMYPPSMIATGSVGAAICGLQQDDEVNTLTCDALTELLAKITHTDVDCLKACQEQIEALLLNSLQQFRQEQHNAGSKSVEDPDQATTPTDVRDVDL chain 2: MAATRYEPVAEIGVGAYGTVYKARDPHSGHFVALKSVRVPNGGAAGGGLPVSTVREVALLRRLEAFEHPNVVRLMDVCATSRTDRDIKVTLVFEHIDQDLRTYLDKAPPPGLPVETIKDLMRQFLSGLDFLHANCIVHRDLKPENILVTSNGTVKLADFGLARIYSYQMALTPVVVTLWYRAPEVLLQSTYATPVDMWSVGCIFAEMFRRKPLFCGNSEADQLGKIFDLIGLPPEDDWPREVSLPRGAFAPRGPRPVQSVVPEMEESGAQLLLEMLTFNPHKRISAFRALQHSYLHKEESDAE | Addition of cyclin D2-Cdk4 complexes, but neither subunit alone, to extracts from contact inhibited and TGF-β arrested cells allowed cyclin E to activate Cdk2 to a level equivalent to that observed in extracts from proliferating cells | Addition of Kip1 to cyclin E-Cdk2, cyclin A-Cdk2 or cyclin D2-Cdk4 complexes inhibited their ability to phosphorylate a GST-Rb fusion product | inhibited cyclin E-Cdk2 or cyclin D2:Cdk4 less effectively | 
2 | Cdk4 alone (baculoviral, Sf9 lysate) (protein) MAATRYEPVAEIGVGAYGTVYKARDPHSGHFVALKSVRVPNGGAAGGGLPVSTVREVALLRRLEAFEHPNVVRLMDVCATSRTDRDIKVTLVFEHIDQDLRTYLDKAPPPGLPVETIKDLMRQFLSGLDFLHANCIVHRDLKPENILVTSNGTVKLADFGLARIYSYQMALTPVVVTLWYRAPEVLLQSTYATPVDMWSVGCIFAEMFRRKPLFCGNSEADQLGKIFDLIGLPPEDDWPREVSLPRGAFAPRGPRPVQSVVPEMEESGAQLLLEMLTFNPHKRISAFRALQHSYLHKEESDAE | Addition of cyclin D2-Cdk4 complexes, but neither subunit alone, to extracts from contact inhibited and TGF-β arrested cells allowed cyclin E to activate Cdk2 |  |  | 
3 | cyclin D1-Cdk4 complex (baculoviral, co-infected Sf9 cells) (protein) chain 1: MEHQLLCCEVETIRRAYPDTNLLNDRVLRAMLKTEETCAPSVSYFKCVQKEIVPSMRKIVATWMLEVCEEQKCEEEVFPLAMNYLDRFLSLEPLKKSRLQLLGATCMFVASKMKETIPLTAEKLCIYTDNSIRPEELLQMELLLVNKLKWNLAAMTPHDFIEHFLSKMPEADENKQTIRKHAQTFVALCATDVKFISNPPSMVAAGSVVAAMQGLNLGSPNNFLSCYRTTHFLSRVIKCDPDCLRACQEQIEALLESSLRQAQQNVDPKATEEEGEVEEEAGLACTPTDVRDVDI chain 2: MAATRYEPVAEIGVGAYGTVYKARDPHSGHFVALKSVRVPNGGAAGGGLPVSTVREVALLRRLEAFEHPNVVRLMDVCATSRTDRDIKVTLVFEHIDQDLRTYLDKAPPPGLPVETIKDLMRQFLSGLDFLHANCIVHRDLKPENILVTSNGTVKLADFGLARIYSYQMALTPVVVTLWYRAPEVLLQSTYATPVDMWSVGCIFAEMFRRKPLFCGNSEADQLGKIFDLIGLPPEDDWPREVSLPRGAFAPRGPRPVQSVVPEMEESGAQLLLEMLTFNPHKRISAFRALQHSYLHKEESDAE |  |  |  | Equal amounts of cyclin Di-Cdk4 and cyclin D3-Cdk4 complexes, as estimated by immunoblotting of Sf9 lysates, were much less effective in lowering the cyclin E threshold for Cdk2 activation
4 | cyclin D3-Cdk4 complex (baculoviral, co-infected Sf9 cells) (protein) chain 1: MELLCCEGTRHAPRAGPDPRLLGDQRVLQSLLRLEERYVPRASYFQCVQKEIKPHMRKMLAYWMLEVCEEQRCEEDVFPLAMNYLDRYLSCVPTRKAQLQLLGTVCLLLASKLRETTPLTIEKLCIYTDQAVAPWQLREWEVLVLGKLKWDLAAVIAHDFLALILHRLSLPSDRQALVKKHAQTFLALCATDYTFAMYPPSMIATGSIGAAVLGLGACSMSADELTELLAGITGTEVDCLRACQEQIEAALRESLREAAQTAPSPVPKAPRGSSSQGPSQTSTPTDVTAIHL chain 2: MAATRYEPVAEIGVGAYGTVYKARDPHSGHFVALKSVRVPNGGAAGGGLPVSTVREVALLRRLEAFEHPNVVRLMDVCATSRTDRDIKVTLVFEHIDQDLRTYLDKAPPPGLPVETIKDLMRQFLSGLDFLHANCIVHRDLKPENILVTSNGTVKLADFGLARIYSYQMALTPVVVTLWYRAPEVLLQSTYATPVDMWSVGCIFAEMFRRKPLFCGNSEADQLGKIFDLIGLPPEDDWPREVSLPRGAFAPRGPRPVQSVVPEMEESGAQLLLEMLTFNPHKRISAFRALQHSYLHKEESDAE |  |  |  | Equal amounts of cyclin Di-Cdk4 and cyclin D3-Cdk4 complexes, as estimated by immunoblotting of Sf9 lysates, were much less effective in lowering the cyclin E threshold for Cdk2 activation
